Data reported in publication PMC5319395.

Molecular target: T1, S. pombe Uba1 (S. pombe) (UniProt O94609)
T1 sequence: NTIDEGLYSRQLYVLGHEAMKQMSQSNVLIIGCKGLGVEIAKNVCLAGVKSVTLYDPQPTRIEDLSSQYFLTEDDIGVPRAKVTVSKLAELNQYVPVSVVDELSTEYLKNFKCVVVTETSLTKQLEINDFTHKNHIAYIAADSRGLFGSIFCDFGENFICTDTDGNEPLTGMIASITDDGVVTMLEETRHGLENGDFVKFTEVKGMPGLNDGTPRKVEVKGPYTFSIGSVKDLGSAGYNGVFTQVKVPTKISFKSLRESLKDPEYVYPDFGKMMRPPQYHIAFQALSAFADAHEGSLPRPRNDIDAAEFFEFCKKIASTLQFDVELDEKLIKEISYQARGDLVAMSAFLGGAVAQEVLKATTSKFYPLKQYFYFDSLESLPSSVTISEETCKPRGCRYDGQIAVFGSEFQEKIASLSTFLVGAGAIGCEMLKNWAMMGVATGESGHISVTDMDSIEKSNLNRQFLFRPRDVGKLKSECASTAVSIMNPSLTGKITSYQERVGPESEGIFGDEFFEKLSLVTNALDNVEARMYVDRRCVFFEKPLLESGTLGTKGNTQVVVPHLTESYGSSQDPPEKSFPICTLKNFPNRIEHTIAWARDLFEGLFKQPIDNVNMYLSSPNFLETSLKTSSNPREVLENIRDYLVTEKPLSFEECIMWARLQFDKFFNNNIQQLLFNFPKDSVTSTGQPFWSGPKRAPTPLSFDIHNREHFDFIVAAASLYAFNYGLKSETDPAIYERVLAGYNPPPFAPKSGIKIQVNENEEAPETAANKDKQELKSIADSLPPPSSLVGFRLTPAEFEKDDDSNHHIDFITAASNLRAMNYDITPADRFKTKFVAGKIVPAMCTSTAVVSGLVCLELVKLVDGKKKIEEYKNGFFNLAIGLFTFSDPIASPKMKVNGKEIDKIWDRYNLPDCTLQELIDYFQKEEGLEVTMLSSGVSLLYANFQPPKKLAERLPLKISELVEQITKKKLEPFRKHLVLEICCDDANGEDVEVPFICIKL

fold decrease in E1-E2 Ub thioester transfer assay (Figure 2E): 2 fold
B1: Ubc15 L67F (enzyme)
chain: MPSSASEQLLRKQLKEIQKNPPQGFSVGLVDDKSIFEWEVMIIGPEDTLYEGGFFHATLSFPQDYPFMPPKMKFTTEIWHPNVHPNGEVCISILHPPGDDKYGYEDAGERWLPVHSPETILISVISMLSSPNDESPANIDAAKEFRENPQEFKKRVRRLVRRSIEMI
